Measured values published in US20170022287A1 (Chugai, published 2017).

B1: R6 (antibody, V domains shown)
VH: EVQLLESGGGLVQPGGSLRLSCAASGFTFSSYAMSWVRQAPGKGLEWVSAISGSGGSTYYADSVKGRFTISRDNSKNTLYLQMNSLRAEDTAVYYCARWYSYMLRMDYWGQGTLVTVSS
VL: DIQMTQSPSSLSASVGDRVTITCRASQSISSYLNWYQQKPGKAPKLLIYAASSLQSGVPSRFSGSGSGTDFTLTISSLQPEDFATYYCQQFHSFPLTFGGGTKVEIK
notes: Synthetic library clone; Fab on phage in the phage ELISA
B2: R3 (antibody, V domains shown)
VH: EVQLVQSGAEVKKPGASVKVSCKASGYTFTSYYTHWVRQAPGQGLEWMGIINPSGGSTSYAQKFQGRVTMTRDTSTSTVYMELSSLRSEDTAVYYCARGAPEYSSSSDYWGQGTMVTVSS
VL: QSALTQPASVSGSPGQSITISCTGTSSDVGGYNFVSWYQQHPGKAPKLMIYDVSKRPSGVSTRFSGSKSGNTASLTISGLQAEDEADYYCNSYTTSSTRWMFGGGTKVTVL
notes: Naive library clone; Fab on phage in the phage ELISA
B3: R4 (antibody, V domains shown)
VH: EVQLVQSGAEVKKPGASVKVSCKASGYTFSGYYMHWVRQAPGQGLEWMGWINPNSGDTNYAQNFQGRVTMTRDTSISTAYMELSRLRSDDTAVYYCARDGTGYSSSPDYWGQGTPVTVSS
VL: QSALTQPASVSGSPGQSITISCTGTSSDVGGYNYVSWYQQHPGKAPKLMIYDVSNRPSGVSNRFSGSKSGNTASLTISGLQAEDEADYYCSSYTSSSTRWVFGGGTKLTVL
notes: as for B2
B4: R5 (antibody, V domains shown)
VH: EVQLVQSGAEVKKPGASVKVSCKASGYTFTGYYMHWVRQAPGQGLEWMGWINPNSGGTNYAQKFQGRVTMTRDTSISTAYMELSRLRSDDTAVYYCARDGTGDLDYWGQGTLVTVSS
VL: QSALTQPRSVSGSPGQSVTISCTGTSSDVGVYDYVSWYQQFPGKAPKLMIYDVNKRPSGVPDRFSGSKSGNTASLTVSGLQAEDEADYYCCSYSGTDIRWLFGGGTKLTVL
notes: as for B2

Key:
[1] = target: T1, CRD1-3; test: ELISA, coated CD137-Fc protein 2 µg/mL, antibody 10 or 5 µg/mL; absorbance 620 nm divided by that of the uncoated well
T1 construct: also called fragmented human CD137-Fc fusion protein CRD1-3
T1 sequence (chain, as listed by the source limits assumed): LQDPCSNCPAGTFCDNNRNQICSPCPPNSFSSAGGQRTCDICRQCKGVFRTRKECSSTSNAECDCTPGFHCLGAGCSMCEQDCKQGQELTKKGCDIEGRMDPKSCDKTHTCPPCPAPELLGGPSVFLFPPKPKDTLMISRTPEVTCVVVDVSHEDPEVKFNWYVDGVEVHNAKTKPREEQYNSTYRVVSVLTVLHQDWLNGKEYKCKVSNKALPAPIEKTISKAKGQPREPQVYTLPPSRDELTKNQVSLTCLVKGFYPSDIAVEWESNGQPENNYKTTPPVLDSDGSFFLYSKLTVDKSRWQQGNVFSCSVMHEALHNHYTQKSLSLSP
Experimental: (§1) Fragmented human CD137-Fc fusion proteins were diluted to 2 μg/mL in an aqueous sodium carbonate solution adjusted to pH9.6. Fifty μL of a diluted fragmented human CD137-Fc fusion protein was added individually to each well of a Nunc MaxiSorp flat-bottom 96 well plate (Nunc). This was allowed to stand at 4° C. overnight or longer, and then the plate was allowed to stand at room temperature for one hour so that the plate has the same temperature as the room temperature. The solution containing the fragmented human CD137-Fc fusion protein was removed by tilting, and each well was washed three times with 300 μL of Wash buffer (TBS containing 0.1% Tween20, TaKaRa). Next, 150 μL of blocking buffer (TBS containing 2% BSA) was added to each well, and this was allowed to stand for one hour or more. The blocking buffer was removed by tilting, and each well was washed three times with Wash Buffer in a similar manner to an earlier step. Then, 50 μL of an antibody solution prepared in advance by dilution with TBS to 10 μg/mL or 5 μg/mL was added to each well. This was subjected to a speed of 600 rpm or so for one hour at room temperature to bind the antibody to the immobilized antigen. […] 100 μL of a secondary antibody solution produced by 1000-fold dilution with TBS containing 0.1% Tween20 was added to each well. For the secondary antibody, ANTIBODY ALKALINE PHOSPHATASE CONJUGATE HUMAN IMMUNOGLOBULIN ABSORBED Goat Anti-Human Kappa Alkaline Phosphate from BIOSOURCE was used in the case of antibodies carrying a Kappa chain, and Human Lambda Light Chain Antibody; Goat anti-Human Lambda Light Chain Antibody Alkaline Phosphatase Conjugated from BETHYL LABORATORIES INC. was used in the case of antibodies carrying a Lambda chain. […] Color development was performed using the BluePhos Microwell kit from KPL. After the chromogenic reaction was stopped using the AP stop solution from KPL, the absorbance was measured at 620 nm on an absorptiometer.

[2] = target: full-length human CD137-Fc fusion protein (human); test: as above
Sequence of full-length human CD137-Fc fusion protein (human) (chain, as listed by the source limits assumed): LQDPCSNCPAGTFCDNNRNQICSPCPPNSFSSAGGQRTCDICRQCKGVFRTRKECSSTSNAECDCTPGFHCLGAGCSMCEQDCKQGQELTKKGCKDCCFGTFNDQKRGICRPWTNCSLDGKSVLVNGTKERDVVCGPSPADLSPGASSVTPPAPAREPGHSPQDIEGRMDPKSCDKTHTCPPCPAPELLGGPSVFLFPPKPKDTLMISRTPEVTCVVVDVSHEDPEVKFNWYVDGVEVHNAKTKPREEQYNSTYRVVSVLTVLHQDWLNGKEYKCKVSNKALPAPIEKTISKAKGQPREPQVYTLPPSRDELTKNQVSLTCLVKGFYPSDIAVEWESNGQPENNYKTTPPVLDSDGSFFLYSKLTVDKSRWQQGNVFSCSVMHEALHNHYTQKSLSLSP
Experimental: as §1

[3] = target: T2, CRD3-4; test: as above
T2 construct: also called fragmented human CD137-Fc fusion protein CRD3-4
T2 sequence (chain, as listed by the source limits assumed): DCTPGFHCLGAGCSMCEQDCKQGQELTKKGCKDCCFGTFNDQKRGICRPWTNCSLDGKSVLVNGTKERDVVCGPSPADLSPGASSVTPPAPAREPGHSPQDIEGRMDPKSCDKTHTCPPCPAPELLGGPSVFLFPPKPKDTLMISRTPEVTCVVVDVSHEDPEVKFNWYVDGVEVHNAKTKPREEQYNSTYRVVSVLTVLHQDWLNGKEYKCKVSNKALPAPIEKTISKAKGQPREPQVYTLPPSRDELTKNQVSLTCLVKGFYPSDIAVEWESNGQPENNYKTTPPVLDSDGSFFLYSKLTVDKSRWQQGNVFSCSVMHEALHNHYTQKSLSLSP
Experimental: as §1

[4] = target: T3, CRD2-4; test: as above
T3 construct: also called fragmented human CD137-Fc fusion protein CRD2-4
T3 sequence (chain, as listed by the source limits assumed): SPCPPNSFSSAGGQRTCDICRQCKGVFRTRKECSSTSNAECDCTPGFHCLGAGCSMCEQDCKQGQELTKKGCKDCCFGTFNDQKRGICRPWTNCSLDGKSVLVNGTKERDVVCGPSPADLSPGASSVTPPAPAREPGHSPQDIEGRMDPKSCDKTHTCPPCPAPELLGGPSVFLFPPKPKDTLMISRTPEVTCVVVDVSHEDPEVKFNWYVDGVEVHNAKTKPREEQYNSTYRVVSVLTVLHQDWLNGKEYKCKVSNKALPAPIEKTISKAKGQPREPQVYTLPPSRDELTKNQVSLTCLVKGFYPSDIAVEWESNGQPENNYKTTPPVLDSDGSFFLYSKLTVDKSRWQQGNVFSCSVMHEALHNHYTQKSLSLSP
Experimental: as §1

[5] = target: T4, CRD2-3; test: as above
T4 construct: also called fragmented human CD137-Fc fusion protein CRD2-3
T4 sequence (chain, as listed by the source limits assumed): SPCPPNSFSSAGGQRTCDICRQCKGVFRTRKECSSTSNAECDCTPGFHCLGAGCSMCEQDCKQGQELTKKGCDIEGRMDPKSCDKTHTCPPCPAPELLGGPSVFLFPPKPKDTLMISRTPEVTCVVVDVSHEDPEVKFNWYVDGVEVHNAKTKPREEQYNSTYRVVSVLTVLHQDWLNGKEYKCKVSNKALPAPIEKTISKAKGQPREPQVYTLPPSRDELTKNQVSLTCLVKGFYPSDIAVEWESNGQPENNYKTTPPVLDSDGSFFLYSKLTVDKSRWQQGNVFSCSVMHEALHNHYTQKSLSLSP
Experimental: as §1

[6] = target: T1, CRD1-3; test: ELISA, coated CD137-Fc protein 2 µg/mL, antibody 10 or 5 µg/mL, absorbance 620 nm; Non (uncoated well) 0.165
[7] = target: full-length human CD137-Fc fusion protein (human); test: as above
[8] = target: T2, CRD3-4; test: as above
[9] = target: T3, CRD2-4; test: as above
[10] = target: T4, CRD2-3; test: as above
[11] = target: T5, CRD1; test: ELISA, coated CD137-Fc protein 2 µg/mL, antibody 10 or 5 µg/mL; absorbance 620 nm divided by that of the uncoated well
T5 construct: also called fragmented human CD137-Fc fusion protein CRD1
T5 sequence (chain, as listed by the source limits assumed): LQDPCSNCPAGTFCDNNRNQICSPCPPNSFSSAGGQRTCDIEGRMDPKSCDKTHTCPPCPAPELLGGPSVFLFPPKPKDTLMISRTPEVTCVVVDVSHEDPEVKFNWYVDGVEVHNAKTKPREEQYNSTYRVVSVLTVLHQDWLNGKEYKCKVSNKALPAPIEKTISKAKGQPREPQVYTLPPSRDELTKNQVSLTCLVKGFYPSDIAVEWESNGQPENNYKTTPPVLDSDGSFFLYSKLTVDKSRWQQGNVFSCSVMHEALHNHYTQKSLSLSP
Experimental: as §1

[12] = target: T6, CRD1-2; test: as above
T6 construct: also called fragmented human CD137-Fc fusion protein CRD1-2
T6 sequence (chain, as listed by the source limits assumed): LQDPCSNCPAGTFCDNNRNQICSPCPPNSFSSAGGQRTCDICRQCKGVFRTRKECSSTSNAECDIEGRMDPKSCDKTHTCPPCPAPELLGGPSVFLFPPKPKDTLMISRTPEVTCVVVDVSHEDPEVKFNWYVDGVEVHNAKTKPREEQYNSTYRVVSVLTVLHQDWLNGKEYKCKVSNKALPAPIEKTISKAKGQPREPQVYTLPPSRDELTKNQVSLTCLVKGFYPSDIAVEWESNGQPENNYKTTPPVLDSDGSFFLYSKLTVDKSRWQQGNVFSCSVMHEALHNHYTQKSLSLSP
Experimental: as §1

[13] = target: T5, CRD1; test: ELISA, coated CD137-Fc protein 2 µg/mL, antibody 10 or 5 µg/mL, absorbance 620 nm; Non (uncoated well) 0.061
Experimental: as §1

[14] = target: T1, CRD1-3; test: as above
Experimental: as §1

[15] = target: full-length human CD137-Fc fusion protein (human); test: as above
Experimental: as §1

[16] = target: T2, CRD3-4; test: as above
Experimental: as §1

[17] = target: T6, CRD1-2; test: as above
Experimental: as §1

[18] = target: T3, CRD2-4; test: as above
Experimental: as §1

[19] = target: T4, CRD2-3; test: as above
Experimental: as §1

[20] = target: T5, CRD1; test: ELISA, coated CD137-Fc protein 2 µg/mL, antibody 10 or 5 µg/mL, absorbance 620 nm; Non (uncoated well) 0.051
Experimental: as §1

[21] = target: T1, CRD1-3; test: as above
Experimental: as §1

[22] = target: full-length human CD137-Fc fusion protein (human); test: as above
Experimental: as §1

[23] = target: T2, CRD3-4; test: as above
Experimental: as §1

[24] = target: T6, CRD1-2; test: as above
Experimental: as §1

[25] = target: T3, CRD2-4; test: as above
Experimental: as §1

[26] = target: T4, CRD2-3; test: as above
Experimental: as §1

[27] = target: T5, CRD1; test: ELISA, coated CD137-Fc protein 2 µg/mL, antibody 10 or 5 µg/mL, absorbance 620 nm; Non (uncoated well) 0.216
[28] = target: T1, CRD1-3; test: as above
[29] = target: full-length human CD137-Fc fusion protein (human); test: as above
[30] = target: T2, CRD3-4; test: as above
[31] = target: T6, CRD1-2; test: as above
[32] = target: T3, CRD2-4; test: as above
[33] = target: T4, CRD2-3; test: as above

| Binder | Ratio with respect to Non-Coating [1] | Ratio with respect to Non-Coating [2] | Ratio with respect to Non-Coating [3] | Ratio with respect to Non-Coating [4] | Ratio with respect to Non-Coating [5] | Ratio with respect to Non-Coating [11] | Ratio with respect to Non-Coating [12] | also measured |
| --- | --- | --- | --- | --- | --- | --- | --- | --- |
| B1 | 13.9 | 13.1 | 16.6 | 14.2 | 15.5 | – | – | ELISA color development level [6]: 2.3; ELISA color development level [7]: 2.16; ELISA color development level [8]: 2.73; ELISA color development level [9]: 2.34; ELISA color development level [10]: 2.56 |
| B2 | 18.4 | 33.7 | 1.3 | 1.4 | 1.6 | 1.7 | 28.5 | ELISA color development level [13]: 0.103; ELISA color development level [14]: 1.12; ELISA color development level [15]: 2.06; ELISA color development level [16]: 0.077; ELISA color development level [17]: 1.74; ELISA color development level [18]: 0.0875; ELISA color development level [19]: 0.0995 |
| B3 | 15.3 | 37.1 | 1.1 | 1.3 | 1.1 | 1.2 | 29.3 | ELISA color development level [20]: 0.0635; ELISA color development level [21]: 0.779; ELISA color development level [22]: 1.89; ELISA color development level [23]: 0.056; ELISA color development level [24]: 1.49; ELISA color development level [25]: 0.065; ELISA color development level [26]: 0.0585 |
| B4 | 6.3 | 8.7 | 0.7 | 1.2 | 1.3 | 1.3 | 7.9 | ELISA color development level [27]: 0.278; ELISA color development level [28]: 1.36; ELISA color development level [29]: 1.88; ELISA color development level [30]: 0.161; ELISA color development level [31]: 1.7; ELISA color development level [32]: 0.25; ELISA color development level [33]: 0.274 |
